Consider 10 molecules from patent US20240148898A1 (CELLEMEDY, published 2024).

Where a chain is given by its changes, count along the chain named.

In test [1] the target is T1, human transferrin receptor (human, UniProt P02786 89-760, limits assumed).
T1 construct: also called TfR Human
The experiment in a line: MST (Monolith NT.115), His-tag-dye-labelled protein, TfR titrated. The protocol:
(§1) First, 100 μl of dye that specifically binds to a hexa-His tag (RED-tris-NTA 2nd Generation Dye) was prepared at a concentration of 50 nM, along with 100 μl of the produced protein at a concentration of 200 nM, followed by mixing the same and incubating at room temperature for 30 minutes. The incubated product was centrifuged at 13000 rpm for 10 minutes at 4° C. by a centrifuge, thus to separate the supernatant and obtain a dye-labeled protein.
(§2) Then, 25 μl of 9.65 μM transferrin receptor was added to the 1st PCR tube; 10 μl of PBS-T (PBS+0.5% tween 20) buffer was added to 2nd to 16th PCR tubes; 10 μl of transferrin in the 1st PCR tube was transferred to the 2nd PCR tube; and 10 μl was again transferred from the 2nd PCR tube to the 3rd PCR tube. Likewise, this procedure was continued up to the 16th tube thus to perform ½ dilution in a sequential order so that each of the 2nd to 16th PCR tubes becomes 20 μl.
(§3) Thereafter, 10 μl of the dye-labeled protein was added to each PCR tube, and the reaction was performed at room temperature for 1 hour.

Test [2] addresses T2, mouse transferrin receptor (mouse, UniProt Q62351 89-763, limits assumed).
T2 construct: also called TfR Mouse
The description is as above. The protocol: as §1, §2, §3

The target of test [3] is T3, transferrin receptor (TfR), species not stated.
T3 construct: also called the transferrin receptor
T3 sequence (P02786 whole entry): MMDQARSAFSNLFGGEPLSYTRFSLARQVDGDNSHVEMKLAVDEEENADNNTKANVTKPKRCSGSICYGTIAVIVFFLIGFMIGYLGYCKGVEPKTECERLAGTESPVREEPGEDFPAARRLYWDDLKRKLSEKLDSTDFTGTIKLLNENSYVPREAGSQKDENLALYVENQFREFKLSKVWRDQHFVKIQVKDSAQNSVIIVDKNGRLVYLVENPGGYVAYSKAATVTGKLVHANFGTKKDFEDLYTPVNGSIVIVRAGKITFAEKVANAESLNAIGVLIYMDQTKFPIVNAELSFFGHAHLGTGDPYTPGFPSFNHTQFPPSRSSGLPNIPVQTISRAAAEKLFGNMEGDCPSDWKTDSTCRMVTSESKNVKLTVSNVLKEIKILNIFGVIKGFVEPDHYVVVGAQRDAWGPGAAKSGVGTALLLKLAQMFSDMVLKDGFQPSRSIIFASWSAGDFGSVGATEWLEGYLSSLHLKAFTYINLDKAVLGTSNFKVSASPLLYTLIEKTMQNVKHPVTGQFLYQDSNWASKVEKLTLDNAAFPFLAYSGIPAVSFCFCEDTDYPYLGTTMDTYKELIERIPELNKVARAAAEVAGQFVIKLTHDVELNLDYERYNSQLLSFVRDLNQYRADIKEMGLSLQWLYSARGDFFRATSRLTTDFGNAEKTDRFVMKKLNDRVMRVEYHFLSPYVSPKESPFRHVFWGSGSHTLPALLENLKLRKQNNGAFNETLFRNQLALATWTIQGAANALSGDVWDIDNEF
The experiment in a line: Microscale Thermophoresis (MST) with the transferrin receptor, Example 5; species of TfR not given on the sheet or in the legend (value coincides with the Mouse TfR row of Table 5).

T1 sequence (P02786 89-760 limits assumed): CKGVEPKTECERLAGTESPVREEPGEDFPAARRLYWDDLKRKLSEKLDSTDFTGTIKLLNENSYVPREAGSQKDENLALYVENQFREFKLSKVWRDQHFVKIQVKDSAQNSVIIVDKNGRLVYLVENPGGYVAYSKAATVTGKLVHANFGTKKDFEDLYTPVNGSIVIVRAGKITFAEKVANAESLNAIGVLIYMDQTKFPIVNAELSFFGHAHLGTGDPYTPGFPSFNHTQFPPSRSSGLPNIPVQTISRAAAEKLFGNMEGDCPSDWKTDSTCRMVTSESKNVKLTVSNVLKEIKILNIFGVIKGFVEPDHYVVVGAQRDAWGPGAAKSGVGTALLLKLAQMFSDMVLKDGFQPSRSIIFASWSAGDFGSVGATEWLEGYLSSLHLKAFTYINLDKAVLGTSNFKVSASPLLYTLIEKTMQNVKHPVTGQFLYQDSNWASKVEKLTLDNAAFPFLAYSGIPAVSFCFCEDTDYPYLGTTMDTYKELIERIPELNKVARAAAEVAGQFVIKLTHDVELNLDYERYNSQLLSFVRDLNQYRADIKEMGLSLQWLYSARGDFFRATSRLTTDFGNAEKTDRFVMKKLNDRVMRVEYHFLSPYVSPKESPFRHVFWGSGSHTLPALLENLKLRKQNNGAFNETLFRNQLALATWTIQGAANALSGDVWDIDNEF
T2 sequence (Q62351 89-763 limits assumed): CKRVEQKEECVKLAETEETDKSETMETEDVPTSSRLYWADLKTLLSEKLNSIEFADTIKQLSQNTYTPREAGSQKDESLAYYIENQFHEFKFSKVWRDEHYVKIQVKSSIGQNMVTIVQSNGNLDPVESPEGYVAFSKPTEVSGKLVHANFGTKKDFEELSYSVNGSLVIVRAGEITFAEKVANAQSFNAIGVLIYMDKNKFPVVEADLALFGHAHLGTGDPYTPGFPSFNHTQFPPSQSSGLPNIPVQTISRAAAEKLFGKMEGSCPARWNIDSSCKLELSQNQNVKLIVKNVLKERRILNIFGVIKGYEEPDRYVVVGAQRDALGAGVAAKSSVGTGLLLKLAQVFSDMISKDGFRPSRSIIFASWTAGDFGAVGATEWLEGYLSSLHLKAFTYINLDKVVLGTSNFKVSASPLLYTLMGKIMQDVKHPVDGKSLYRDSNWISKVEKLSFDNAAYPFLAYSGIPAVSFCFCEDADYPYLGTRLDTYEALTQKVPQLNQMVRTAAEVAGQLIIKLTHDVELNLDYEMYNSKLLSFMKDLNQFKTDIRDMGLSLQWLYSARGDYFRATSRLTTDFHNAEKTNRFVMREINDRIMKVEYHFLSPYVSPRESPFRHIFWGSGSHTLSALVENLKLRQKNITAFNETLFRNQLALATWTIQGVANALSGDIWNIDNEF

B1: AB-gp100-huHF (other)
chain: HHHHHHMTTASTSQVRQNYHQDSEAAINRQINLELYASYVYLSMSYYFDRDDKVPRNQDWLVALKNFAKYFLHQSHEEREHAEKLMKLQNQRGGRIFLQDIKKPDCDDWESGLNAMECALHLEKNVNQSLLELHKLATDKNDPHLCDFIETHYLNEQVKAIKELGDHVTNLRKMGAPESGLAEYLFDKHTLGDSDNES
notes: also called gp100-huHF (AB loop); TSA insertion site AB, gp100
With B1, the values for the Kd in test [1] and in test [2] were 29.7 nM and 40.8 nM, respectively.

B2: AB-AH1-huHF (other)
chain: B1 chain with K53S, V54P, P55S, R56Y, N57V, Q58Y, D59H, W60Q, L61F
notes: also called AH1-huHF (AB loop); TSA insertion site AB, AH1
In turn, B2 yielded a Kd in test [1] of 10.9 nM.

B3: BC-gp100-huHF (other)
chain: HHHHHHMTTASTSQVRQNYHQDSEAAINRQINLELYASYVYLSMSYYFDRDDVALKNFAKYFLHQSHEEREHAEKLMKLQNQRGGRIFLQDIKKPDCDDKVPRNQDWLWESGLNAMECALHLEKNVNQSLLELHKLATDKNDPHLCDFIETHYLNEQVKAIKELGDHVTNLRKMGAPESGLAEYLFDKHTLGDSDNES
notes: also called gp100-huHF (BC loop); TSA insertion site BC, gp100
In the case of B3, the Kd came to 14 nM in test [1] and 48 nM in test [2].

B4: BC-AH1-huHF (other)
chain: B3 chain with K100S, V101P, P102S, R103Y, N104V, Q105Y, D106H, W107Q, L108F
notes: also called AH1-huHF (BC loop); TSA insertion site BC, AH1
With B4, the Kd in test [1] is 107 nM.

B5: DE-AH1-huHF (other)
chain: HHHHHHMTTASTSQVRQNYHQDSEAAINRQINLELYASYVYLSMSYYFDRDDVALKNFAKYFLHQSHEEREHAEKLMKLQNQRGGRIFLQDIKKPDCDDWESGLNAMECALHLEKNVNQSLLELHKLATDKNDPHLCDFIETHYLNEQVKAIKELGDHVTNLRKMGAPESPSYVYHQFSGLAEYLFDKHTLGDSDNES
notes: also called AH1-huHF (DE loop); TSA insertion site DE, AH1
B5 returned a Kd in test [1] of 6.11 nM.

B6: NA-gp100-huHF (other)
chain: MHHHHHHTTASTSKVPRNQDWLQVRQNYHQDSEAAINRQINLELYASYVYLSMSYYFDRDDVALKNFAKYFLHQSHEEREHAEKLMKLQNQRGGRIFLQDIKKPDCDDWESGLNAMECALHLEKNVNQSLLELHKLATDKNDPHLCDFIETHYLNEQVKAIKELGDHVTNLRKMGAPESGLAEYLFDKHTLGDSDNES
modifications: One monomer is given; the particle is a self-assembled 24-mer. In the MST assay the His tag carried RED-tris-NTA dye non-covalently.
notes: also called gp100 fused between N-terminus and A helix; TSA insertion site NA, gp100
Take B6: the Kd in test [1] turned out to be 152 nM.

B7: EC-gp100-huHF (other)
chain: MHHHHHHEFTTASTSQVRQNYHQDSEAAINRQINLELYASYVYLSMSYYFDRDDVALKNFAKYFLHQSHEEREHAEKLMKLQNQRGGRIFLQDIKKPDCDDWESGLNAMECALHLEKNVNQSLLELHKLATDKNDPHLCDFIETHYLNEQVKAIKELGDHVTNLRKMGAPESGLAEYLFDKHTLGDSKVPRNQDWLDNES
modifications: One monomer is given; the particle is a self-assembled 24-mer. In the MST assay the His tag carried RED-tris-NTA dye non-covalently.
notes: also called gp100 fused between E helix and C-terminus; TSA insertion site EC, gp100
Molecule B7 yielded a Kd in test [1] of 5.68 nM. Against the preceding molecule, the Kd is about 27-fold lower.

B8: DE-gp100-huHF (other)
chain: MHHHHHHLETTASTSQVRQNYHQDSEAAINRQINLELYASYVYLSMSYYFDRDDVALKNFAKYFLHQSHEEREHAEKLMKLQNQRGGRIFLQDIKKPDCDDWESGLNAMECALHLEKNVNQSLLELHKLATDKNDPHLCDFIETHYLNEQVKAIKELGDHVTNLRKMGAPEGSKVPRNQDWLEFSGLAEYLFDKHTLGDSDNES
modifications: One monomer is given; the particle is a self-assembled 24-mer. In the MST assay the His tag carried RED-tris-NTA dye non-covalently.
notes: also called huHF-DE-gp100; gp100-huHF (DE loop)
Take B8: the Kd in test [3] turned out to be 30.5 nM; in test [1], 9.78 nM; in test [2] it was 30.5 nM.

B9: CD-gp100-huHF (other)
chain: HHHHHHMTTASTSQVRQNYHQDSEAAINRQINLELYASYVYLSMSYYFDRDDVALKNFAKYFLHQSHEEREHAEKLMKLQNQRGGRIFLQDIKKPDCDDWESGLNAMECALHLEKNVNQSLLELHKLATDKNDKVPRNQDWLPHLCDFIETHYLNEQVKAIKELGDHVTNLRKMGAPESGLAEYLFDKHTLGDSDNES
notes: also called CD-loop-gp100; huHF-CD-gp100
Regarding B9, the Kd in test [1] worked out at 4.89 nM; in test [2], 15.9 nM.

B10: CD-AH1-huHF (other)
chain: B9 chain with K134S, V135P, P136S, R137Y, N138V, Q139Y, D140H, W141Q, L142F
notes: also called huHF-CD loop-AH1; CD-loop-AH1
B10 had a Kd in test [1] of 3.45 nM.
